Results published in patent US20140289906A1, “Compositions Having Dicamba Decarboxylase Activity and Methods of Use” (priority 2013, published 2014).

B1: 38 (protein, listed as Variovorax paradoxus)
chain: MAQGKIGLEEHFAIPQTLQDSAGFVPGVYWKELSSRLLDIHDGRLRQMDEHGMEMMILSLNAPAVQAVADPVKAYELAVRANDFLAEQVAKRPDRFQAFAALPMQDPEKATQELERCMSVLGFRGALVNGFSQVGTPDNVAYYDAPQYAPFWAAAERLDAPFYLHPRNPIASWAQIYEGHPWLLGPTWAFAQETAVHALRLMASGLFDRHPGLKIILGHLGEGLPYNMWRVDHRNAWVKAPKGYPAKRKLCEYFQENFYLTTSGNFRTQTLIDAMLEVGSDRILFSTDWPFENIDHASNWFNDTSISEADRKKIGRTNAMSLFKLA
B2: 59 (protein)
chain: MAPSVIDAHAHFLPGSLVTALRSRSDAPDIRTDSNGGESFGIYRTRMPYGRTYDALDVRLARMDELGVDRQILSLPGLFGIDSRPVSQALPLVRAFNDGVADLVRKHPDRFSGIAALPLADLDAAQEEYRRARGDLGLSGLILPGDTFVSVAAAERVRPLFELAATIGGLIFVHPGPLPDETGSAVDAPAPHTDSVVHRRVTVDIQNRMTEVMVTLALTDFLAPYPSVPVQVANLGGSLPFVIERMDHVYALRNPEAPPPSLSLRSLYVDAASLGPRAIALAAEVYGADRVLFGSDYPIFDDGRCLDAVRQTRLSPDARALIAGGNAARMLTQT
modifications: alpha proteobacterium
B3: 40 (protein, listed as Rhodococcus jostii)
chain: MAQGKIALEEHFAIPETLNDSAGFVPGTYWDELQARLLDIQDVRLKLMDEHNIETMILSLNAPAVQAIPERERAIDIARRANDVLAEECAKRPDRFRGFAALPLQDPDAAAEELRRCVTELGFVGALVNGFSQSATVDGGSTPLYYDLPRYRPFWAEVERLDVPFYLHPRNPLNQDARIYEGHPWLLGPTWAFAQETAVHALRLMASGLFDEHPGLRIVLGHMGEGIPAMLWRIDHRNAWVDVPPAYPAKRRMVDYFTENFFVTTSGNFRTQTLIDLLLELGSERVMFSTDWPFENINHAAEWFDAASISEADRLKIGRTNAATLFKLDR
B4: 37 (protein, listed as Burkholderia gladioli)
chain: MATFSNVKKIALEEHFAIAETIEDSAGFVPPDDWVELRGRLLDIQERRLAEMDRAGIELMVLSLNAPAVQAIRDPRQAVELARRANDYLAEQVARRPDRFRAFAALPMQAPEQAIREAERCVRELGFVGALVNGFSEAEDGAELYYDLPRYRPFWAALEALEVPFYLHPRNPLAGRAPIYDGHSWLMGPTWAFGQETAVHALRLMGSGLFDAHPRLQIILGHMGEGLPYSMWRVDNRNAWVSAKPNYPAEKPIAEYFRNNFWLTTSGNFRTQTLIDAMLEIGSDRILFSADWPFENMDHAADWFDHASISENDRIKIGRGNAERLLKLGR
B5: 45 (protein)
chain: MANDDLAEVIAAHPDRFAGFAALPMRDPQAAAVELQRAVGTHGFCGAMINGLIEGRFLDDPAFAPLLSTAADLGVPLYLHPSFPPPQVAEIYFGGLAPVLGDLLATAGWGWHAETALHVLRLVATGVFDRLPELWVIVGHMGEMIPFALARIDTVLSPVAQLRQPVAQYFQTNVWFTTSGYTTFPPLQCALSTVGIDRLIFSVDYPYTDNTSARALLDTAPISPVDREKLAHGTVEALLRV
modifications: Mycobacterium sp
B6: 39 (protein, listed as Agrobacterium fabrum)
chain: MAQGKVALEEHFAIPETLQDSAGFVPGDCWTELQHRLLDIQDTRLKLMDAHGIETMILSLNAPAVQAIPDKTKAIEIARRANDALAEECAKRPDRFLAFAALPLQDPDAATQELRRCVNDLGFVGALVNGFSQEGDGQTPLYYDLPQYRPFWGEVEKLDVPFYLHPRNPLPQDSRIYDGHPWLLGPTWAFAQETAVHALRLMASGLFDEHPRLDIILGHMGEGLPYMMWRIDHRNAWVKLPPRYPAKRRFVDYFNENFHITTSGNFRTQTLIDAILEIGADRILFSTDWPFENIDHASDWFHATSIAEADRVKIGRTNARRLFKLDGR
B7: 3 (protein, listed as Lactobacillus plantarum)
chain: MAKLITVEEHFESAAVTAAMRQAVGNAVLPAVSPALRQYMRDNLPSPAIMQDTQHERLAFMAQYGIDMQVLSYGNSSPQNLSPEQAVPLSQLANDELAKAVVAHPDRYAGLAVLPVGDPQAAVAELNRAVTTLGLRGVLLKGNYQNKFFDEPFFLPIFEAAAALDVPVYFHPSFIPQAVTSHYFESNQWSDVVTGILSSAGYGWHMDVGIQVIRMIASGIFDKLPGLKLISGHWGELVPLFLERLDDELTTYTDLQYPFSTYYRHNVYVTPSGILSAPQLQFMLAEMGADHLMYSIDYPYKQPETSGSFLDIADLTDEQRAQIAFGTATTLFKL
B8: 22 (protein, listed as Staphylococcus epidermidis)
chain: MAKSINFEEHYVVDDIQKETMKYMSSDPNGVPMQTMLKGLEQKSGFTNADDITKHDERIKFMDEHDVEMQVLSYGNGAPSNLEGERAIELCQQANDTLAKYVNEHPDRFVGFATLPINEPQAAVEEFKRCIKELGFKGALIMGHPKNGFLDQDQYDDLFATAEALNVPIYLHPSPVQSDVYQAYYKGNYSDVTAATFACFGYGWHVDVGIHAIHLVLSGVFDRHPNLNMIIGHWGEFVPFFLERMDDILFADHLEHPISYYFKNNFYITPSGMLTKPQFDLVKAEVGVDRILYSADYPYVEPDKLGTFLDELDLTEEEKEKISYKNGAKLLGLEK
B9: 42 (protein)
chain: MAQGKIALEEHFAIPDTLQDSAGFVPGDYWKELSARLLDIHEQRLMQMDAYGIEKMILSLNAPAVQAIPDKAKALEISRRANDFLAEQCARNPDRFLGFAALPLQDPDAATAELQRCVKTLGFVGALVNGFSQEGDGVTPLYYDLPQYRGFWAEVEKLAVPFYLHPRNPLPQDSRIYAGHPWLMGPTWAFAQETAVHALRLVGSGLFDDHPALRIILGHMGEGLPYMMWRIDNRNAWVKVAPNYPAKRRIADYFNENFYITTSGNFRTQSLVDAMLEIGADRILFSTDWPFENIDHASDWFDTATISEADRLKIGRTNAATLFNLES
modifications: Agrobacterium radiobacter
B10: 26 (protein, listed as Variovorax paradoxus)
chain: MATHMAPMKNKIALEEHFAIDLTIADSQVYARPEVWQGLKSNLLDFEQQRLEKMDEWGTEFSILSLNSPAVQGIPDAKRAIEVAQRANDVLAEQVKRHPTRFGGFAALPMQDPEASARELERCVNQLGFHGFLVNGFSQVGDENIVVYYDDARFNDFWTAAAALKKPFYMHPRDPLLAREPIYDGAHWLTGPTWAFAMETAIHALRLMSSGMFDRHPALQMILGHFGEGIPFNIWRVDHILRKGRRGMPCDKEIGEYLRSNVHITTSGNFRTPTLLSTMLEVGSDRIMYSVDYPFEKHEDAARWFDTCEISENDRQKIGRDNARKLFGLK

assay: 14C assay: 14CO2 capture from [14C]-carboxyl-labeled dicamba with IPTG-induced recombinant E. coli cells; settings: IPTG-induced recombinant E. coli cells; 14CO2 from [14C]-carboxyl-labeled dicamba

Molecule	Dicamba Decarboxylase Activity
B1	Low
B2	No
B3	Low
B4	Low
B5	No
B6	No
B7	Low
B8	High
B9	Low
B10	High

same assay, conditions: among the 108 sequences tested; recombinant E. coli cell assay

Molecule	decarboxylation activity of dicamba
B8	showed decarboxylation activity of dicamba
B10	showed decarboxylation activity of dicamba

same assay, conditions: dicamba decarboxylation activity

Molecule	Enzymatic Detection level
B1	Low
B2	No
B3	Low
B4	Low
B5	No
B6	No
B7	Low
B8	High
B9	Low
B10	High
